Source: article PMC4922627

Legend:
[1] = molecular target: TEV-cleaved ICP35 (White spot syndrome virus); assay: SEC; HiLoad 16/600 Superdex 200; 20 mM Tris-HCl pH 8.0, 200 mM NaCl, 5 mM MgSO4; peak fractions checked by SDS-PAGE
[2] = molecular target: TEV-cleaved ICP35 (White spot syndrome virus); assay: SDS-PAGE without boiling; purified protein loaded on 12% SDS-PAGE with and without boiling, Coomassie stain and Western blot; TEV-cleaved ICP35 concentrated to 10 mg/ml to induce oligomerization

Question: Which stoichiometry N [1] does the source give for TEV-cleaved ICP35 (domain or fragment) here?
Answer: 2

Question: What about the stoichiometry N [2] of the same substance?
Answer: 2
